The values below come from US20150140169.

T1: alpha-s1 casein from Bos taurus
T1 chain: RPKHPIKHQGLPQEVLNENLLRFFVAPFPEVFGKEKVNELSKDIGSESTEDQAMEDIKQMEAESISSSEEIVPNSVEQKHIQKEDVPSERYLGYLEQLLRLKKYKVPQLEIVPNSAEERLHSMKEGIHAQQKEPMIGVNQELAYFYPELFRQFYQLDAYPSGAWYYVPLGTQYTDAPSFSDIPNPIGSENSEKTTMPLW

B1: camel chymosin variant #138 (F223E) (protein)
chain: GKVAREPLTSYLDSQYFGKIYIGTPPQEFTVVFDTGSSDLWVPSIYCKSNVCKNHHRFDPRKSSTFRNLGKPLSIHYGTGSMEGFLGYDTVTVSNIVDPNQTVGLSTEQPGEVFTYSEFDGILGLAYPSLASEYSVPVFDNMMDRHLVARDLFSVYMDRNGQGSMLTLGAIDPSYYTGSLHWVPVTLQQYWQFTVDSVTINGVAVACVGGCQAILDTGTSVLEGPSSDILKIQMAIGATENRYGEFDVNCGNLRSMPTVVFEINGRDYPLSPSAYTSKDQGFCTSGFQGDNNSELWILGDVFIREYYSVFDRANNRVGLAKAI
B2: camel chymosin variant #142 (F223Q) (protein)
chain: GKVAREPLTSYLDSQYFGKIYIGTPPQEFTVVFDTGSSDLWVPSIYCKSNVCKNHHRFDPRKSSTFRNLGKPLSIHYGTGSMEGFLGYDTVTVSNIVDPNQTVGLSTEQPGEVFTYSEFDGILGLAYPSLASEYSVPVFDNMMDRHLVARDLFSVYMDRNGQGSMLTLGAIDPSYYTGSLHWVPVTLQQYWQFTVDSVTINGVAVACVGGCQAILDTGTSVLQGPSSDILKIQMAIGATENRYGEFDVNCGNLRSMPTVVFEINGRDYPLSPSAYTSKDQGFCTSGFQGDNNSELWILGDVFIREYYSVFDRANNRVGLAKAI
B3: camel chymosin variant #141 (F223N) (protein)
chain: GKVAREPLTSYLDSQYFGKIYIGTPPQEFTVVFDTGSSDLWVPSIYCKSNVCKNHHRFDPRKSSTFRNLGKPLSIHYGTGSMEGFLGYDTVTVSNIVDPNQTVGLSTEQPGEVFTYSEFDGILGLAYPSLASEYSVPVFDNMMDRHLVARDLFSVYMDRNGQGSMLTLGAIDPSYYTGSLHWVPVTLQQYWQFTVDSVTINGVAVACVGGCQAILDTGTSVLNGPSSDILKIQMAIGATENRYGEFDVNCGNLRSMPTVVFEINGRDYPLSPSAYTSKDQGFCTSGFQGDNNSELWILGDVFIREYYSVFDRANNRVGLAKAI
B4: camel chymosin variant #143 (F223V) (protein)
chain: GKVAREPLTSYLDSQYFGKIYIGTPPQEFTVVFDTGSSDLWVPSIYCKSNVCKNHHRFDPRKSSTFRNLGKPLSIHYGTGSMEGFLGYDTVTVSNIVDPNQTVGLSTEQPGEVFTYSEFDGILGLAYPSLASEYSVPVFDNMMDRHLVARDLFSVYMDRNGQGSMLTLGAIDPSYYTGSLHWVPVTLQQYWQFTVDSVTINGVAVACVGGCQAILDTGTSVLVGPSSDILKIQMAIGATENRYGEFDVNCGNLRSMPTVVFEINGRDYPLSPSAYTSKDQGFCTSGFQGDNNSELWILGDVFIREYYSVFDRANNRVGLAKAI
B5: camel chymosin variant #145 (F223I) (protein)
chain: GKVAREPLTSYLDSQYFGKIYIGTPPQEFTVVFDTGSSDLWVPSIYCKSNVCKNHHRFDPRKSSTFRNLGKPLSIHYGTGSMEGFLGYDTVTVSNIVDPNQTVGLSTEQPGEVFTYSEFDGILGLAYPSLASEYSVPVFDNMMDRHLVARDLFSVYMDRNGQGSMLTLGAIDPSYYTGSLHWVPVTLQQYWQFTVDSVTINGVAVACVGGCQAILDTGTSVLIGPSSDILKIQMAIGATENRYGEFDVNCGNLRSMPTVVFEINGRDYPLSPSAYTSKDQGFCTSGFQGDNNSELWILGDVFIREYYSVFDRANNRVGLAKAI
B6: camel chymosin variant #146 (Q288G) (protein)
chain: GKVAREPLTSYLDSQYFGKIYIGTPPQEFTVVFDTGSSDLWVPSIYCKSNVCKNHHRFDPRKSSTFRNLGKPLSIHYGTGSMEGFLGYDTVTVSNIVDPNQTVGLSTEQPGEVFTYSEFDGILGLAYPSLASEYSVPVFDNMMDRHLVARDLFSVYMDRNGQGSMLTLGAIDPSYYTGSLHWVPVTLQQYWQFTVDSVTINGVAVACVGGCQAILDTGTSVLFGPSSDILKIQMAIGATENRYGEFDVNCGNLRSMPTVVFEINGRDYPLSPSAYTSKDQGFCTSGFGGDNNSELWILGDVFIREYYSVFDRANNRVGLAKAI
B7: camel chymosin variant #140 (F223M) (protein)
chain: GKVAREPLTSYLDSQYFGKIYIGTPPQEFTVVFDTGSSDLWVPSIYCKSNVCKNHHRFDPRKSSTFRNLGKPLSIHYGTGSMEGFLGYDTVTVSNIVDPNQTVGLSTEQPGEVFTYSEFDGILGLAYPSLASEYSVPVFDNMMDRHLVARDLFSVYMDRNGQGSMLTLGAIDPSYYTGSLHWVPVTLQQYWQFTVDSVTINGVAVACVGGCQAILDTGTSVLMGPSSDILKIQMAIGATENRYGEFDVNCGNLRSMPTVVFEINGRDYPLSPSAYTSKDQGFCTSGFQGDNNSELWILGDVFIREYYSVFDRANNRVGLAKAI
B8: camel chymosin variant #144 (F223Y) (protein)
chain: GKVAREPLTSYLDSQYFGKIYIGTPPQEFTVVFDTGSSDLWVPSIYCKSNVCKNHHRFDPRKSSTFRNLGKPLSIHYGTGSMEGFLGYDTVTVSNIVDPNQTVGLSTEQPGEVFTYSEFDGILGLAYPSLASEYSVPVFDNMMDRHLVARDLFSVYMDRNGQGSMLTLGAIDPSYYTGSLHWVPVTLQQYWQFTVDSVTINGVAVACVGGCQAILDTGTSVLYGPSSDILKIQMAIGATENRYGEFDVNCGNLRSMPTVVFEINGRDYPLSPSAYTSKDQGFCTSGFQGDNNSELWILGDVFIREYYSVFDRANNRVGLAKAI
B9: camel chymosin variant #139 (F223L) (protein)
chain: GKVAREPLTSYLDSQYFGKIYIGTPPQEFTVVFDTGSSDLWVPSIYCKSNVCKNHHRFDPRKSSTFRNLGKPLSIHYGTGSMEGFLGYDTVTVSNIVDPNQTVGLSTEQPGEVFTYSEFDGILGLAYPSLASEYSVPVFDNMMDRHLVARDLFSVYMDRNGQGSMLTLGAIDPSYYTGSLHWVPVTLQQYWQFTVDSVTINGVAVACVGGCQAILDTGTSVLLGPSSDILKIQMAIGATENRYGEFDVNCGNLRSMPTVVFEINGRDYPLSPSAYTSKDQGFCTSGFQGDNNSELWILGDVFIREYYSVFDRANNRVGLAKAI
B10: Maxiren (recombinant wild-type calf chymosin B) (protein)
chain: GEVASVPLTNYLDSQYFGKIYLGTPPQEFTVLFDTGSSDFWVPSIYCKSNACKNHQRFDPRKSSTFQNLGKPLSIHYGTGSMQGILGYDTVTVSNIVDIQQTVGLSTQEPGDVFTYAEFDGILGMAYPSLASEYSIPVFDNMMNRHLVAQDLFSVYMDRNGQESMLTLGAIDPSYYTGSLHWVPVTVQQYWQFTVDSVTISGVVVACEGGCQAILDTGTSKLVGPSSDILNIQQAIGATQNQYGEFDIDCDNLSYMPTVVFEINGKMYPLTPSAYTSQDQGFCTSGFQSENHSQKWILGDVFIREYYSVFDRANNLVGLAKAI

In this data set the target is T1, alpha-s1 casein from Bos taurus.
In turn, B1 returned a (αSN1-1)/(αSN1), 6 hours, 11° C. of 0.6; a (αSN1-1)/(αSN1), 24 hours, 11° C. of 1.4; a αs1-I CN, 6 hours, 11° C. of 2e+07 Volume; a αs1-I CN, 24 hours, 11° C. of 2.47e+07 Volume. This protein yielded a αs1 CN, 6 hours, 11° C. of 3.29e+07 Volume and a αs1 CN, 24 hours, 11° C. of 1.74e+07 Volume.
B2 showed a (αSN1-1)/(αSN1), 6 hours, 11° C. of 0.7; a (αSN1-1)/(αSN1), 24 hours, 11° C. of 1.7; a αs1-I CN, 6 hours, 11° C. of 2.55e+07 Volume; a αs1-I CN, 24 hours, 11° C. of 1.75e+07 Volume. Moreover, the αs1 CN, 6 hours, 11° C. came to 3.72e+07 Volume and the αs1 CN, 24 hours, 11° C. stood at 1.02e+07 Volume.
B3 gave a (αSN1-1)/(αSN1), 6 hours, 11° C. of 0.7; a (αSN1-1)/(αSN1), 24 hours, 11° C. of 2; a αs1-I CN, 6 hours, 11° C. of 2.57e+07 Volume; a αs1-I CN, 24 hours, 11° C. of 2.49e+07 Volume. The αs1 CN, 6 hours, 11° C. stood at 3.57e+07 Volume and the αs1 CN, 24 hours, 11° C. worked out at 1.27e+07 Volume.
In the case of B4, the (αSN1-1)/(αSN1), 6 hours, 11° C. was found to be 1.1; the (αSN1-1)/(αSN1), 24 hours, 11° C. is 2.4; the αs1-I CN, 6 hours, 11° C. was determined as 2.62e+07 Volume; the αs1-I CN, 24 hours, 11° C. is 1e+07 Volume. Further, the αs1 CN, 6 hours, 11° C. is 2.36e+07 Volume and the αs1 CN, 24 hours, 11° C. amounted to 4.1e+06 Volume.
Regarding B5, the (αSN1-1)/(αSN1), 6 hours, 11° C. came to 1.2; the (αSN1-1)/(αSN1), 24 hours, 11° C. was 4.1; the αs1-I CN, 6 hours, 11° C. is 1.91e+07 Volume; the αs1-I CN, 24 hours, 11° C. stood at 1.17e+07 Volume. The protein further had a αs1 CN, 6 hours, 11° C. of 1.57e+07 Volume and a αs1 CN, 24 hours, 11° C. of 2.8e+06 Volume.
For the protein B6, the (αSN1-1)/(αSN1), 6 hours, 11° C. was 0.9; the (αSN1-1)/(αSN1), 24 hours, 11° C. came to 2.3; the αs1-I CN, 6 hours, 11° C. was 2.17e+07 Volume; the αs1-I CN, 24 hours, 11° C. stood at 2.85e+07 Volume. This protein also displayed a αs1 CN, 6 hours, 11° C. of 2.38e+07 Volume and a αs1 CN, 24 hours, 11° C. of 1.23e+07 Volume.
B7 displayed a (αSN1-1)/(αSN1), 6 hours, 11° C. of 0.7; a (αSN1-1)/(αSN1), 24 hours, 11° C. of 2; a αs1-I CN, 6 hours, 11° C. of 2.34e+07 Volume; a αs1-I CN, 24 hours, 11° C. of 2.27e+07 Volume. Moreover, the αs1 CN, 6 hours, 11° C. worked out at 3.22e+07 Volume and the αs1 CN, 24 hours, 11° C. amounted to 1.14e+07 Volume.
Regarding B8, the (αSN1-1)/(αSN1), 6 hours, 11° C. was 1; the (αSN1-1)/(αSN1), 24 hours, 11° C. came out at 3.3; the αs1-I CN, 6 hours, 11° C. was 3.05e+07 Volume; the αs1-I CN, 24 hours, 11° C. was 2.82e+07 Volume. Also, the αs1 CN, 6 hours, 11° C. amounted to 3.12e+07 Volume and the αs1 CN, 24 hours, 11° C. is 8.4e+06 Volume.
B9: the (αSN1-1)/(αSN1), 6 hours, 11° C. worked out at 1.2; the (αSN1-1)/(αSN1), 24 hours, 11° C. stood at 4.3; the αs1-I CN, 6 hours, 11° C. was found to be 2.59e+07 Volume; the αs1-I CN, 24 hours, 11° C. is 1.24e+07 Volume. Moreover, the αs1 CN, 6 hours, 11° C. was 2.1e+07 Volume and the αs1 CN, 24 hours, 11° C. is 2.9e+06 Volume.
As to B10, the (αSN1-1)/(αSN1), 6 hours, 11° C. (average) was determined as 1.7; the (αSN1-1)/(αSN1), 24 hours, 11° C. (average) came to 6.3; the “hydrolysis of the first cut in alpha-s1-casein” value was “This rapid first cut is similar to the situation with wild-type calf chymosin (Maxiren)”; the small, 6 hours, 11° C. was 0 Volume. Further, the small, 16 hours, 30° C. turned out to be 8.1e+06 Volume; the small, 24 hours, 11° C. worked out at 6.7e+06 Volume; the αs1-I CN, 6 hours, 11° C. is 2.12e+07 Volume; the αs1-I CN, 6 hours, 11° C. (average) stood at 2.63e+07 Volume. The protein also showed a αs1-I CN, 16 hours, 30° C. of 600000 Volume; a αs1-I CN, 24 hours, 11° C. of 1.59e+07 Volume; a αs1-I CN, 24 hours, 11° C. (average) of 2.52e+07 Volume; a αs1-I CN/αs1 CN, 6 hours, 11° C. of 1.9. The αs1-I CN/αs1 CN, 24 hours, 11° C. was determined as 9.7; the αs1 CN, 6 hours, 11° C. came out at 1.14e+07 Volume; the αs1 CN, 6 hours, 11° C. (average) worked out at 1.58e+07 Volume; the αs1 CN, 16 hours, 30° C. was determined as 900000 Volume. Besides, the αs1 CN, 24 hours, 11° C. is 1.6e+06 Volume and the αs1 CN, 24 hours, 11° C. (average) came out at 4e+06 Volume.
